The text below walks through data of the nanobody polyreactivity screen of Harvey et al. (2022).

The series in a line: yeast display, Sf9 membrane polyspecificity reagent, FACS + sequencing; frameworks hold sequencing errors. An outline of the steps:
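Genes from sorted yeast were amplified by colony PCR, read by MiSeq 2 × 250 sequencing and filtered on CDR length. These cells carried a synthetic nanobody library in Saccharomyces cerevisiae BJ5465 and were sorted by FACS into low and high (top ~1%) gates on anti-HA and streptavidin fluorescence. Polyreactivity is labelled according to the gate of origin.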
Regarding “QVHLVESGGGLVQAGGSLRLSSAAYGGIFDDNAMGWYRQAHGKERELVAAISSSGGSTYYADSVKGRFTISRDNAKYTVYLQMNSLKPEDTAVYYCNADRRRRFGYWGQGTQVNVSS”, the “polyreactivity (PSR sort gate)” value is reported as “high polyreactivity”. To “QVHLVESGGGLVQAGGSLRLSSPASGRIFYRKALGWSRQETGKERELVAAISSSGGSTYYADSVKGRFTISRDNAKNTVYLQMNSLKPEDTEVYYCNKAVWGRSKYDFCGQGTQVTVSS” belongs “high polyreactivity”. To “QVHLVESGGGLVQAGGSLRLTCAASGRTFPGYDMGWYRQAPGKERELVAAISWSGTSTYYADSVKGRFTISRDNSKNTVYLQMNSLIPEDTAVYYCAARVKGQWNTYEYWGQGTQVTVSS” belongs “high polyreactivity”; to “QVHLVESGGGLVQAGGSLRLTCAASGSIFLYYAMGWYRQAPGKERELVAGIRRGGRTNYADSVKGRFTISRDNAKNTVYLQMNSLKPEDTAVYYCAKGGYWGQGTLVTVSS”, “high polyreactivity”; to “QVHLVESGGGLVQAGGSLRLTCAASGSTFDINAMRWYRQAPGKERELVASITFSGGSTYYADSVKGRFTISRDNAKNTVYLQMNSLKPEDTAVYYCAADSSGEYPGGYWGQGTQVTVSS”, “low polyreactivity”. Consider “QVHLVESGGGLVQAGGSLRVSCDASGILYTVYAMGWYRQAPGKQRELVAAITWSGGSTYYADSVKGRFTISRDNAKNTVYLQMNSLKPEDTEVYYCNTVGRVWDVETDGDYDYWGQGTQVTVSS”, for which the “polyreactivity (PSR sort gate)” value is on record as “low polyreactivity”. On to “QVHLVESGGGLVQAGGSLSLSCAASGSIFRYYAMGWYRQAPGKEREFVAAITRGGGRTYYADSVKGRFTISRDTAKHTVYLQLNSLKPEDTAVYSCAAGPPRTRYRNARFDYWGQGTQVTVSS”, for which the “polyreactivity (PSR sort gate)” value is given as “high polyreactivity”. Turning to “QVHLVESGGGLVQAGGTLRLSCAASGFTFRIYAMGWYIQAPGKERELVATISWSGTSTYYADSVKGRFTISRDNAKNTVYLQMNSLKPEDTAVYYCAKDGVSVYWLNKYYYWGQGTQVTVSS”, the “polyreactivity (PSR sort gate)” value is on record as “low polyreactivity”.

Take “QVHLVESGGGLVQAGGTLRLSCYASGRTIDTNAMGWYRQPPGKEREMVATINCSGGRTHYADSVKGRFTISRDNAKNTVYLQMNSLKPEDTAVFYCAKASSRRYWTIRDCDYWGQGTQVTVSS”: the “polyreactivity (PSR sort gate)” value was “low polyreactivity”. Regarding “QVHLVESGGGLVQAGRSLRISCAASGRTFYGYAMGWYRQAPGKERELVAAITNGGRTYYADSVKGRFTISRDNAKNTVYLQMNSLKPEDTAVYYCAAGTGRGRSTLGSYYWGQCTQVTVSS”, the “polyreactivity (PSR sort gate)” value is “high polyreactivity”. Take “QVHLVESGGGLVQAGVSLRLSCAASGRIFEENAMGWYRQAPGKERELVAAITYSGGSTYYADSVKGRFTISRDNAKNTVYLQMNSLKPEDTAVYYCAATVDLVYIDYDYWGQGTQVTVSS”: the “polyreactivity (PSR sort gate)” value is “low polyreactivity”. In the case of “QVHLVESGGGLVQARGSLRLSCAASGSIFRNYAMGWYRQAPGKERELLATISGRGGRTYYADSVKGRFTISRDNAKNTVYLQMNSLKPEDTAVYYCAARGTLGKYSTATVYWGKGTQVTVSS”, the “polyreactivity (PSR sort gate)” value is “high polyreactivity”.

As for “QVHLVESGGGLVQEGGSLRISCAASGGTFHSNDMGWYRQAPGKESELVASINWSGGSTYYSDSVKGRFTISRDNAKNTVYLQMNRLKPEDNAVYYCAARESYPGYGYDHWGQGTQVTVSS”, the “polyreactivity (PSR sort gate)” value was “low polyreactivity”.

As to “QVHLVESGGGLVQEGGSLRLSCAASGSIFQYYAMGWYIQAPGKERELVAAISWRSGRTYYADSVKGRFTISRDNAKNTVYLQMNSLKPEDTAVYYCIRGYARDYDYWGQGTQVTVSS”, the “polyreactivity (PSR sort gate)” value was “high polyreactivity”. “QVHLVESGGGLVQSGGSLRLRCAASGSTFYGYTKAWYRQAPGKERELVAAINWSGTRTYYADSVNGRFTISRDTAKNTVYLQMNSLKPEDTAVYYCAAERYYWGLGTQVTVSS”: the “polyreactivity (PSR sort gate)” value is “high polyreactivity”. To “QVHLVESGGGLVQSRGSLRLSCAASGNIFGNNAMGWYRLAPGKERELVAAISSSGTSTYYADSVKGRFTISRDNAKNTVYLQMNSLKPEDTEVYYCNADPLPYDGYYDYDYWGQGTQVTVSS” belongs “low polyreactivity”. For “QVHLVESGGRLVQAGVSLRLSCAASGRIFSNYAMGWYIQAPGKERELVAAISRGGGRTFYADSVKGRFTISRDNAKNTVYLQMNSLKPEDTAVYYCATRSYYVKGDYWGQGTQVTVSS”, the “polyreactivity (PSR sort gate)” value is reported as “high polyreactivity”.

Take “QVHLVESGGVLVQAGGRLRLSCAAYGNIIGFNAMGWYRQAPGTERELVAAINSGGSTYYPDSVKGRFTISRDNAKNSVYLQMNSLKPEDSAVYYCAARVRIRGGGYDDWGQGTQVTVSS”: the “polyreactivity (PSR sort gate)” value is on record as “high polyreactivity”. To “QVHLVESGGVLVQAGGSLLLSCGACGSIFAQYTMGWYRNAPGKDRELVAAISSSGGSTYYADSVKGRFTISRDNANNTFYLQMNSLKAEDTAVYYCAARGAHYLRSGDHWGQGTQVNVSS” belongs “low polyreactivity”; to “QVHLVESGGVLVQAGGSLRLSCAASGSIYESYVMGWYRQAPRKERELVASISSGGSTYYADSVKGRFTISRDNAKNTVYFQNNSLKQEDTAGYYCAANYDGGYLDYEAGYRLEYDFWGQGTQVTVSS”, “low polyreactivity”. As for “QVHLVESGRGLVQAGGSLSVTCSASGFTFYWYTMGWYRRAPGKERELVAAISRRGGSTSYADSVKGRFTISRDNAKNTVYLKMKILKPDDTAVYYCAKTPGWTDYDYWGQGTQVTVSS”, the “polyreactivity (PSR sort gate)” value is “high polyreactivity”.

Regarding “QVHLVESGVGLDQAGGSLRLSCASTGYIFETYAMGWYRPATGKERELVAAISRGASTYYADSVKGRFTISRDNAQNTVSLQLNSLKQEDTAVYYCAPTRRSWHRYGYWGQGTQVTVSS”, the “polyreactivity (PSR sort gate)” value is “low polyreactivity”. To “QVHLVESGVGLVQAGCSLRLSCAASGIIFLTNAMGWYRQAPGKERELVAAITAIGGSTYYADSVKGRFTISRDNAKNTVYLQINSLKPEDTAVYYCAADFSYVYYLYDYWGQGTQVTVSS” belongs “low polyreactivity”. “QVHLVESGVGLVQAGGSLRLSCAASGYIFPYYTMGWYRQAPGKERELVAAITIGGSTYYADSVKGRFTISRDNAKNTVYLQMNSLKPEDTAVYYCAARSRYYDTRFDYWGQGTQVTVSS”: the “polyreactivity (PSR sort gate)” value is given as “low polyreactivity”. With “QVHLVESRGGLVQAGGSLRLSCAASGYTFGHYALGWYRHAPGKERELVAVITSGGSTNYADSEKGRFTISRDNAKNNVYLQMKSLKPEETAVYYCAADLYFYYVWLRDYWGQGTQVTVSS”, the “polyreactivity (PSR sort gate)” value is given as “low polyreactivity”. To “QVHLVESRGGLVQAGGSLRLSCAASVFTFRYYAMGWYRQAPGKERELVAAITSDGITNYADSVKGRFTISRDNAKNTVYLQMNSLKPEDTAVYYCAAVGWFYGIRLEYWGQGTQLTVSS” belongs “high polyreactivity”.

Turning to “QVHLVESVGGLFQAGGSLRLSCDASGRTFPINAMGWYRQAPGKERELVARISRTSGSTYYADSVKGRFTISRDNAKNTVYLQMNSLNPEDTAVYYCAAVRDKYFRARYGYWGQGTQVTVSS”, the “polyreactivity (PSR sort gate)” value is “high polyreactivity”.

Regarding “QVHLVESVGGLVQAGGSLRLSCAASGRIIYTYAMGWYIQAPGKERELVAAISWSGGSTYYADSVKGRFTISRDNAKNTVYLQMNSLKPEDTAVYYCNAAYYGYENLSKRGYWGQGTQVTVSS”, the “polyreactivity (PSR sort gate)” value is listed as “high polyreactivity”. With “QVHLVESVGGLVQAGGSLRLSCAASGRTFHYYAMGWYRQAPGKERELVAGITGGGSTYYADSVKGRFTISRDNAKNTVYLQMNSLKPEDTAVYYCAADRSYYGYGYWGQGTQVTVSS” the entry was “low polyreactivity”.

With “QVHLVESVGGLVQAGGSLRLSCAASGSIFLRYGMGWYRQAPGKERELVASISSSGGSTYYADSVKGRFTISRDNAKNTVYLQMNSLKPEDTAVYYCAADVPGARVSYWTSSGWHYDYCGQGTQVTVSS”, the “polyreactivity (PSR sort gate)” value is reported as “high polyreactivity”. As to “QVHLVESVGGLVQAGGSLRLSCAASGSTFIYYAMVRYRQAPGKERELVASISRSGGSTYYADSVKGRFTISRDNAKNTVYLQMNSLKPEDTAFYYCARAYRSSFNYWGQGTQVTVSS”, the “polyreactivity (PSR sort gate)” value is listed as “high polyreactivity”. With “QVHLVESVGGLVQAGGSLRLSCASSGFTFPYYAMGWYRQQPGKERELVAAISWIGDSTYYADSVKGRFTISRDNAKNTVYLQMNSLKPEDTAVYYCAAGYKWSIPNRDYDYWGQGTQVTVSS” the entry was “low polyreactivity”. For “QVHLVETGGGLVQAGGSLRLSCAASGFIFIWYALGGYRQAPGKERELVAAITSDGGRTYYADSVKGRFTISRDNAKNSVYFQMNSLKPEDTAVYYCYAVSSATKYEYWGQGTQVTVSS”, the “polyreactivity (PSR sort gate)” value is recorded as “high polyreactivity”. To “QVHLVETGGGLVQAGGSLRLSCAASGYIFGWYAMGWYRQAPGKERELVAAITRGGSTNYADSVKGRFTISRDNAKNTVYLLMNSLKPEDTAVYYCNTEDWAVGSPEVEYEYDYWGQGTQVTVSS” belongs “low polyreactivity”. With “QVHLVETVGGLVKAGGSLRLSFAASGSIFTSNDMGWYRQEPGKERELVAAISSGGRTYYADSVKGRFTISRDNAKNTVYLQMNSLKPEYTAVYYCAVDPHLYALRGAVYYWGQGTQVTVSS” the entry was “low polyreactivity”; with “QVHLVQSGGGLVQAGGSLRISSAASGSTFSPYDMGRYRQAPGKEREMVAGITDGAITTYADSVKGSFTISRDNANNTVYLQMNSLKPEDTEVYYCAAFLWAKYHPGYYYWGQGTQETVSS”, “low polyreactivity”.

Regarding “QVHLVQTRGGLVQAGGSLRLSCAASGLTFTYYAMGWNRPEPGKERQLVSAISSSGSDTYYADSVKGRFTISRDYALNTVYFQMNSLKTEDTAVYYCAAVLTALSPDFEYEYWGQGTQVTVSS”, the “polyreactivity (PSR sort gate)” value is given as “low polyreactivity”. With “QVHRVESGGGLVQAGGCLRLSCAASGRTFARYVMGGYRQAPGKERELVAAINSGGTTYYADSVKGRFTISRDNAKNTVYLQMNSLKPEDTAVYYCNGRRGHYAYDYWGQGTQVTVSS” the entry was “high polyreactivity”; with “QVKHVESGGGLVQAGGSLRLSCAASGFTFSYYAMGWFRQAPGKERELVAAITSGGSTYYADYVKGRFTISRDNAKNTVYLQMNSLKPEDTAVYYCNADGWYYPTDDYWGHGTQVTVSS”, “low polyreactivity”. As to “QVKLKESVGGLVQAGGSLRLSCAASGSISATGNMGWYRQAPGEERELVAAINFGSNTYYADSVKGRFTISRDNAKNTVYLQKSGLKPEDTPVYYCAVDGCYVGPYYYWGQGTQVTVSS”, the “polyreactivity (PSR sort gate)” value is recorded as “high polyreactivity”. For “QVKLLDSGGGLVQAGGSLRLSCSASGFTFNNYAMVWYRQAPGKERELVAAISWAGGSTYYADSVKGRFTISRDNAKNTVYLQMNTLKPEDTAVYYCAKRIRYTTRPTYGFYYWGQGTQVTVSS”, the “polyreactivity (PSR sort gate)” value is “high polyreactivity”.
